{"source": "patent US9658208B2", "about": "“Methods and G proteins for screening and identifying ligands of G protein-coupled receptors” (Fred Hutchinson Cancer Research Center, priority 2011, dated 2017)", "molecules": {"B1": {"name": "Gαs-Gαt-13: Gαs-based chimeric G protein, final 13 C-terminal amino acids substituted with those of Gαt (protein)", "chain": "MGCLGNSKTEDQRNEEKAQREANKKIEKQLQKDKQVYRATHRLLLLGAGESGKSTIVKQMRILHVNGFNGEGGEEDVPDYASNSDGEKATKVQDIKNNLKEAIETIVAAMSNLVPPVELANPENQFRVDYILSVMNVPNFDFPPEFYEHAKALWEDEGVRACYERSNEYQLIDCAQYFLDKIDVIKQADYVPSDQDLLRCRVLTSGIFETKFQVDKVNFHMFDVGGQRDERRKWIQCFNDVTAIIFVVASSSYNMVIREDNQTNRLQEALNLFKSIWNNRWLRTISVILFLNKQDLLAEKVLAGKSKIEDYFPEFARYTTPEDATPEPGEDPRVTRAKYFIRDEFLRISTASGDGRHYCYPHFTCAVDTENIRRVFNDCRDIIIKENLKDCGLF", "modifications": "Chimeric protein", "notes": "Gαs-based chimeric G protein, final 13 C-terminal amino acids substituted with those of Gαt"}}, "key": {"[1]": {"tested_on": "nine GPCRs that do not bind to Gαs (serotonin 1b, neuropeptide Y1, leukotriene B4, dopamine D4, GNRH, UDP, calcium-sensing, T1R2/T1R3)", "assay": "CRE-SEAP reporter gene assay, coupling of chimeric G proteins with a variety of GPCRs", "assay_type": "cell-based", "details": "HEK-293 cells, GPCR ligand 48 hours", "description": "(§1) The GPCRs examined were those that couple with Gαi/Gαo subunits (serotonin 1b, neuropeptide Y1, leukotriene B4, and dopamine D4), Gαq (GNRH, UDP, and calcium-sensing receptors), and the orphan mammalian sweet taste receptor complex (T1R2 and T1R3) with unknown coupling preference. The Gαs-based chimeric G proteins examined in this example were Gαs-Gαi-5, Gαs-Gαt-13 (SEQ ID NO: 3), Gαs-Gαo-13 (SEQ ID NO: 4), Gαs-Gαi-13 (SEQ ID NO: 5), Gαs-Gαz-6 (SEQ ID NO: 18), Gαs-Gα15-13 (SEQ ID NO: 7), Gαs-Gαk-5 (SEQ ID NO: 2), and Gαs-Gαq-13 (SEQ ID NO: 8). The chimeric G protein constructs were prepared as described herein. For the coupling assay, HEK-293 cells were cotransfected with each of the Gαs-based chimeric G protein constructs of interest together with the CRE-SEAP reporter gene construct and a cDNA encoding the GPCR to be tested. The transfected cells were cultured in the presence or absence of a GPCR ligand and then assayed for SEAP activity.\nChimeric G protein cloning: An insert containing rat Gαs cDNA was cut out using the restriction enzymes SaII and HinDIII, and ligated into pcDNA3.1(−) cut with XhoI and HinDIII. The chimeric G proteins with the desired C-terminal amino acid substitutions from the Gαi, Gαt, Gαo, Gαz, Gα15, Gαk, and Gαq were prepared by PCR using Gαs as a template. More specifically, Gαs was PCR amplified between an internal EcoRI site and the stop codon, with a 3′ HinDIII placed immediately after the stop codon. A different 3′ oligonucleotide was used for each Gαs chimera and contained a 39 bp sequence that encoded the substituted amino acids at the C-terminus selected from the donor Gα subunit.\nGPCR cloning: Mouse 5-HT1B, mouse dopamine D4, human GNRH, and human neuropeptide Y1 receptors were cloned by PCR from cDNA templates (ATCC) and ligated into pcDNA 3.1(−) (Invitrogen) for expression in mammalian cells. […]\n(§2) Following transfection, the cells were maintained for 48 hours in 200 ul serum free media containing GPCR ligand. […] Fluorescence was then measured using a CytoFluor 4000 multi well plate reader (Applied Biosystems)."}, "dopamine D4 receptor": {"target": "T1, dopamine D4 receptor (Mus musculus, UniProt P51436)", "T1 construct": "expressed in transfected cells; host or cells: HEK-293", "T1 sequence (P51436 1-387)": "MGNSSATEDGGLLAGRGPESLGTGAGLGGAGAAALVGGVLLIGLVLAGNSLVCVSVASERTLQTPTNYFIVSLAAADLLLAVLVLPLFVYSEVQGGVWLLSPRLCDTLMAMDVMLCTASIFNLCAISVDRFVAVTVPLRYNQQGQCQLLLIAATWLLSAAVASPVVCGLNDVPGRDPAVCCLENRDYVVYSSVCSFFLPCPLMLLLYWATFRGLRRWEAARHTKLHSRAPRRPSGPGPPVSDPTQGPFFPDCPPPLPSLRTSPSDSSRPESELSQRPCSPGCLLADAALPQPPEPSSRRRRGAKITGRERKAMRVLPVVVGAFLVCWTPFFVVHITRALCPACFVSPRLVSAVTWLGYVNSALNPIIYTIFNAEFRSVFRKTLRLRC", "assay": "CRE-SEAP reporter gene assay, coupling with dopamine D4", "assay_type": "cell-based", "details": "HEK-293 cells, 1 uM dopamine", "description": "as §1\nChimeric G protein cloning: An insert containing rat Gαs cDNA was cut out using the restriction enzymes SaII and HinDIII, and ligated into pcDNA3.1(−) cut with XhoI and HinDIII. […]\nas §2"}}}
{"molecule": "B1", "values": [{"measurement": "GPCRs tested that coupled to the chimera", "setting": "[1]", "value": "All but one"}, {"measurement": "coupling with dopamine D4 receptor", "setting": "dopamine D4 receptor", "value": "did not couple"}]}
